# Measured values as given in patent US20230357395A1 (published 2023).
# T1: NKp30 on KHYG-1 NK cells (human, UniProt O14931 19-201)
# T1 chain: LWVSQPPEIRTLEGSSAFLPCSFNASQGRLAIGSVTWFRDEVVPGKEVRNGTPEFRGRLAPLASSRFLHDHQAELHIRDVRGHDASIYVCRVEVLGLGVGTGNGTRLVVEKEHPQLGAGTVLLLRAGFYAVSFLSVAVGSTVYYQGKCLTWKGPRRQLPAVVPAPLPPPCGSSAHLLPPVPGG
# T2: TRBC1 on TRBC1+ Jurkat cells (human, UniProt P01850 1-176)
# T2 chain: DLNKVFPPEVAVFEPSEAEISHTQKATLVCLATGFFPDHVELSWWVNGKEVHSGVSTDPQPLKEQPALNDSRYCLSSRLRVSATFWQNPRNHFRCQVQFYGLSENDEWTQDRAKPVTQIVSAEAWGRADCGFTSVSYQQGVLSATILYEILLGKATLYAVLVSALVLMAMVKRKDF
# T3: human TRBC1 (hTRBC1), construct BIM0444 (human, UniProt P01850 1-129)
# T3 chain: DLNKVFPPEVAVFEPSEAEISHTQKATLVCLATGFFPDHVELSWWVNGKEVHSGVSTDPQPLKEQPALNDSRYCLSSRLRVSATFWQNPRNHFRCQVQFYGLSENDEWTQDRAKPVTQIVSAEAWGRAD
# Tests used:
# NKp30 on KHYG-1 NK cells = target: T1, NKp30 on KHYG-1 NK cells; assay: FACS cell binding
# [1] = target: T2, TRBC1 on TRBC1+ Jurkat cells; assay: FACS cell binding
# [2] = target: T3, human TRBC1 (hTRBC1), construct BIM0444; assay: Octet BLI
Binder,EC50 (NKp30 on KHYG-1 NK cells) [nM],EC50 [1] [nM],Kd [2] [nM]
"BJM1042 (anti-TRBC1/NKp30 bispecific antibody, N297A) (bispecific antibody) heavy: not shown light: DVVMTQSPLSLPVTLGQPASISCRSSQRLVHSNGNTYLHWYQQRPGQSPRLLIYRVSNRFPGVPDRFSGSGSGTDFTLKISRVEAEDVGVYFCSQSTHVPYTFGGGTKVEIKRTVAAPSVFIFPPSDEQLKSGTASVVCLLNNFYPREAKVQWKVDNALQSGNSQESVTEQDSKDSTYSLSSTLTLSKADYEKHKVYACEVTHQGLSSPVTKSFNRGEC scFv: EIQLLESGGGLVQPGGSLRLSCAVSGFSITTTGYHWNWVRQAPGKGLEWVGYIYSSGSTSYNPSLKSRFTISRDTSKNTFYLQMNSLRAEDTAVYYCARGDWHYFDYWGQGTMVTVSSGGGGSGGGGSGGGGSGGGGSDSVTTQSPLSLPVTLGQPASISCSGEKLSDKYVHWYQQRPGQSPRMLIYENDRRPSGVPDRFSGSNSGNDATLKISRVEAEDVGVYFCQFWDSTNSAVFGGGTKVEIKDKTHTCPPCPAPELLGGPSVFLFPPKPKDTLMISRTPEVTCVVVDVSHEDPEVKFNWYVDGVEVHNAKTKPREEQYASTYRVVSVLTVLHQDWLNGKEYKCKVSNKALPAPIEKTISKAKGQPREPQVCTLPPSREEMTKNQVSLSCAVKGFYPSDIAVEWESNGQPENNYKTTPPVLDSDGSFFLVSKLTVDKSRWQQGNVFSCSVMHEALHNHYTQKSLSLSPGK",9.48,61,
BJM1048 (antibody) chain 1: not shown chain 2: DVVMTQSPLSLPVTLGQPASISCRSSQRLVHSNGNTYLHWYQQRPGQSPRLLIYRVSNRFPGVPDRFSGSGSGTDFTLKISRVEAEDVGVYFCSQSTHVPYTFGGGTKVEIKRTVAAPSVFIFPPSDEQLKSGTASVVCLLNNFYPREAKVQWKVDNALQSGNSQESVTEQDSKDSTYSLSSTLTLSKADYEKHKVYACEVTHQGLSSPVTKSFNRGEC chain 3: EIQLLESGGGLVQPGGSLRLSCAVSGFSITTTGYHWNWVRQAPGKGLEWVGYIYSSGSTSYNPSLKSRFTISRDTSKNTFYLQMNSLRAEDTAVYYCARGDWHYFDYWGQGTMVTVSSGGGGSGGGGSGGGGSGGGGSSSETTQPPSVSVSPGQTASITCSGEKLSDKYVHWYQQKPGQSPVMVIYENDRRPSGIPERFSGSNSGNTATLTISGTQAMDEADYFCQFWDSTNSAVFGGGTQLTVLDKTHTCPPCPAPELLGGPSVFLFPPKPKDTLMISRTPEVTCVVVDVSHEDPEVKFNWYVDGVEVHNAKTKPREEQYASTYRVVSVLTVLHQDWLNGKEYKCKVSNKALPAPIEKTISKAKGQPREPQVCTLPPSREEMTKNQVSLSCAVKGFYPSDIAVEWESNGQPENNYKTTPPVLDSDGSFFLVSKLTVDKSRWQQGNVFSCSVMHEALHNHYTQKSLSLSPGK,7.66,8.29,
BJM1038 (antibody) chain 1: not shown chain 2: DVVMTQSPLSLPVTLGQPASISCRSSQRLVHSNGNTYLHWYQQRPGQSPRLLIYRVSNRFPGVPDRFSGSGSGTDFTLKISRVEAEDVGVYFCSQSTHVPYTFGGGTKVEIKRTVAAPSVFIFPPSDEQLKSGTASVVCLLNNFYPREAKVQWKVDNALQSGNSQESVTEQDSKDSTYSLSSTLTLSKADYEKHKVYACEVTHQGLSSPVTKSFNRGEC chain 3: EIQLLESGGGLVQPGGSLRLSCAVSGFSITTTGYHWNWVRQAPGKGLEWVGYIYSSGSTSYNPSLKSRFTISRDTSKNTFYLQMNSLRAEDTAVYYCARGDWHYFDYWGQGTMVTVSSGGGGSGGGGSGGGGSGGGGSSSETTQPPSVSVSPGQTASITCSGEKLSDKYVHWYQQKPGQSPVMVIYENDRRPSGIPERFSGSNSGNTATLTISGTQAMDEADYFCQFWDSTNSAVFGGGTQLTVLDKTHTCPPCPAPELLGGPSVFLFPPKPKDTLMISRTPEVTCVVVDVSHEDPEVKFNWYVDGVEVHNAKTKPREEQYASTYRVVSVLTVLHQDWLNGKEYKCKVSNKALPAPIEKTISKAKGQPREPQVCTLPPSREEMTKNQVSLSCAVKGFYPSDIAVEWESNGQPENNYKTTPPVLDSDGSFFLVSKLTVDKSRWQQGNVFSCSVMHEALHNHYTQKSLSLSPGK,7.99,60.5,
"BJM0889 (single arm anti-TRBC1 antibody, N297A) (antibody, V domains shown) VH: QVQLVQSGAEVKKPGSSVKVSCKASGYTFTGYVMHWVRQAPGQGLEWMGFINPYNDDIQSNERFRGRVTITSDKSTTTAYMELSSLRSEDTAVYYCARGAGYNFDGAYRFFDFWGQGTLVTVSS VL: DVVMTQSPLSLPVTLGQPASISCRSSQRLVHSNGNTYLHWYQQRPGQSPRLLIYRVSNRFPGVPDRFSGSGSGTDFTLKISRVEAEDVGVYFCSQSTHVPYTFGGGTKVEIK",,5.26,

# Other lines, results leading:
EC50 (NKp30 on KHYG-1 NK cells) [nM],EC50 [1] [nM],Kd [2] [nM],Binder
5.36,,,"BJM1079 (BJM0411 Parental) (antibody, V domains shown) VH: EIQLLESGGGLVQPGGSLRLSCAVSGFSITTTGYHWNWVRQAPGKGLEWVGYIYSSGSTSYNPSLKSRFTISRDTSKNTFYLQMNSLRAEDTAVYYCARGDWHYFDYWGQGTMVTVSS VL: DSVTTQSPLSLPVTLGQPASISCSGEKLSDKYVHWYQQRPGQSPRMLIYENDRRPSGVPDRFSGSNSGNDATLKISRVEAEDVGVYFCQFWDSTNSAVFGGGTKVEIK"
5.2,,,"BJM1078 (BJM0407 Parental) (antibody, V domains shown) VH: EIQLLESGGGLVQPGGSLRLSCAVSGFSITTTGYHWNWVRQAPGKGLEWVGYIYSSGSTSYNPSLKSRFTISRDTSKNTFYLQMNSLRAEDTAVYYCARGDWHYFDYWGQGTMVTVSS VL: SSETTQPPSVSVSPGQTASITCSGEKLSDKYVHWYQQKPGQSPVMVIYENDRRPSGIPERFSGSNSGNTATLTISGTQAMDEADYFCQFWDSTNSAVFGGGTQLTVL"
6.61,4.55,,"BJM1052 (anti-TRBC1/NKp30 bispecific antibody, N297A) (bispecific antibody) heavy: not shown light: DVVMTQSPLSLPVTLGQPASISCRSSQRLVHSNGNTYLHWYQQRPGQSPRLLIYRVSNRFPGVPDRFSGSGSGTDFTLKISRVEAEDVGVYFCSQSTHVPYTFGGGTKVEIKRTVAAPSVFIFPPSDEQLKSGTASVVCLLNNFYPREAKVQWKVDNALQSGNSQESVTEQDSKDSTYSLSSTLTLSKADYEKHKVYACEVTHQGLSSPVTKSFNRGEC scFv: EIQLLESGGGLVQPGGSLRLSCAVSGFSITTTGYHWNWVRQAPGKGLEWVGYIYSSGSTSYNPSLKSRFTISRDTSKNTFYLQMNSLRAEDTAVYYCARGDWHYFDYWGQGTMVTVSSGGGGSGGGGSGGGGSGGGGSDSVTTQSPLSLPVTLGQPASISCSGEKLSDKYVHWYQQRPGQSPRMLIYENDRRPSGVPDRFSGSNSGNDATLKISRVEAEDVGVYFCQFWDSTNSAVFGGGTKVEIKDKTHTCPPCPAPELLGGPSVFLFPPKPKDTLMISRTPEVTCVVVDVSHEDPEVKFNWYVDGVEVHNAKTKPREEQYASTYRVVSVLTVLHQDWLNGKEYKCKVSNKALPAPIEKTISKAKGQPREPQVCTLPPSREEMTKNQVSLSCAVKGFYPSDIAVEWESNGQPENNYKTTPPVLDSDGSFFLVSKLTVDKSRWQQGNVFSCSVMHEALHNHYTQKSLSLSPGK"
,,9,"humanized JOVI.1 Fab BIM0460 (Fab, V domains shown) VH: QVQLVQSGAEVKKPGSSVKVSCKASGYTFTGYVMHWVRQAPGQGLEWMGFINPYNDDIQSNERFRGRVTITSDKSTTTAYMELSSLRSEDTAVYYCARGAGYNFDGAYRFFDFWGQGTLVTVSS VL: DVVMTQSPLSLPVTLGQPASISCRSSQRLVHSNGNTYLHWYQQRPGQSPRLLIYRVSNRFPGVPDRFSGSGSGTDFTLKISRVEAEDVGVYFCSQSTHVPYTFGGGTKVEIK"
,,4,"JOVI.1 Fab BIM0446 (Fab, V domains shown) VH: EVRLQQSGPDLIKPGASVKMSCKASGYTFTGYVMHWVKQRPGQGLEWIGFINPYNDDIQSNERFRGKATLTSDKSSTTAYMELSSLTSEDSAVYYCARGAGYNFDGAYRFFDFWGQGTTLTVSS VL: DVVMTQSPLSLPVSLGDQASISCRSSQRLVHSNGNTYLHWYLQKPGQSPKLLIYRVSNRFPGVPDRFSGSGSGTDFTLKISRVEAEDLGIYFCSQSTHVPYTFGGGTKLEIK"
